Our source for the Kd values is article PMC9463131, “SLITRK1-mediated noradrenergic projection suppression in the neonatal prefrontal cortex” (Communications Biology, 2022).

The target of assay [1] is T1, L1CAM ECD-His6 (777-NC-100, R&D Systems) (UniProt P32004 20-1120).
T1 construct: L1CAM extracellular domain; source: bought: R&D Systems (777-NC-100)
The assay is described as follows: quartz crystal microbalance; AffinixQ, 27 MHz; about 200 femtomoles SLITRK1 ECD-Fc (WT, S330A or A444S) immobilised through anti-human IgG Fc on the gold resonator; ECD-His6 proteins added at several concentrations; 50 mM Tris-HCl pH 7.6, 15 mM NaCl, 140 mM KCl, 0.5 mM MgCl2, 2 mM CaCl2; 25 ± 1 °C; KD = koff/kon. As to conditions: both partners purified.

Assay [2] deals with T2, human PTPRD ECD-His6 (ACROBiosystems) (human, UniProt P23468 21-1265).
T2 construct: human receptor-type protein tyrosine phosphatase delta (PTPRD), extracellular domain; No catalogue number printed; also called PTPRδ; source: bought: ACROBiosystems
T2 sequence (looked up): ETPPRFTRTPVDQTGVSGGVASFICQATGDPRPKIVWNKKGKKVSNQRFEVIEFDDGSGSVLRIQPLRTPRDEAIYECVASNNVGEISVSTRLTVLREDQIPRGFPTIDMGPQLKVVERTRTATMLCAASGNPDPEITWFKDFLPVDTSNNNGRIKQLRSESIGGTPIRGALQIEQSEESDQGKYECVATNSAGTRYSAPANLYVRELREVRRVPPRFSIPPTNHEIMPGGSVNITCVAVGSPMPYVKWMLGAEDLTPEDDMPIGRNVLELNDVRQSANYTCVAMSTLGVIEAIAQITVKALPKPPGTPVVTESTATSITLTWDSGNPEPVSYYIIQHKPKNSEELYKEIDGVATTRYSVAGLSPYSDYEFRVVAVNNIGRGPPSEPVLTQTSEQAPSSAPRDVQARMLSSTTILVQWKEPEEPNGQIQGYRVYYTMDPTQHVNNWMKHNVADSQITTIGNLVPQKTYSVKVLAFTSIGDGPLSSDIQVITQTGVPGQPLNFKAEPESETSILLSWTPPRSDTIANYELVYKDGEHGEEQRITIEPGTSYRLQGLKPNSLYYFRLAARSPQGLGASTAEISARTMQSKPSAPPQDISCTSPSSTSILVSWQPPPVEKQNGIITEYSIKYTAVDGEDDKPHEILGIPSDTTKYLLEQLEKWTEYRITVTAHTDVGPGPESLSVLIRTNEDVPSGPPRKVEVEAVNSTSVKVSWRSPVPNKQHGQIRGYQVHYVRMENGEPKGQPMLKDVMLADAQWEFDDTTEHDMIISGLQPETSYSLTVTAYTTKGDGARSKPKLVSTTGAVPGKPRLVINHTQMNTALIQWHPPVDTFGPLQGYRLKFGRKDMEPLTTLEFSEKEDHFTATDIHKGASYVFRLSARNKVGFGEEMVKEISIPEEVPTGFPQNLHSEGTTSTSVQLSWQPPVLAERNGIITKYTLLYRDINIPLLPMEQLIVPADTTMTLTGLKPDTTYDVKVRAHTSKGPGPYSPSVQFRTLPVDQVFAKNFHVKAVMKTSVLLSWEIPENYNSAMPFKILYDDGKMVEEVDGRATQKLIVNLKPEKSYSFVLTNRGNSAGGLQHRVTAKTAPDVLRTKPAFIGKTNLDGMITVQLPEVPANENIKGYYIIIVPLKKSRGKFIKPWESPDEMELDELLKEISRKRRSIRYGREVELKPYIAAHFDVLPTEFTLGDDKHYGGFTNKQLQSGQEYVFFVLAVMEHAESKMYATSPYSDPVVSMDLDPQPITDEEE
The description is as above. Particulars: both partners purified.

T1 sequence (P32004 20-1120): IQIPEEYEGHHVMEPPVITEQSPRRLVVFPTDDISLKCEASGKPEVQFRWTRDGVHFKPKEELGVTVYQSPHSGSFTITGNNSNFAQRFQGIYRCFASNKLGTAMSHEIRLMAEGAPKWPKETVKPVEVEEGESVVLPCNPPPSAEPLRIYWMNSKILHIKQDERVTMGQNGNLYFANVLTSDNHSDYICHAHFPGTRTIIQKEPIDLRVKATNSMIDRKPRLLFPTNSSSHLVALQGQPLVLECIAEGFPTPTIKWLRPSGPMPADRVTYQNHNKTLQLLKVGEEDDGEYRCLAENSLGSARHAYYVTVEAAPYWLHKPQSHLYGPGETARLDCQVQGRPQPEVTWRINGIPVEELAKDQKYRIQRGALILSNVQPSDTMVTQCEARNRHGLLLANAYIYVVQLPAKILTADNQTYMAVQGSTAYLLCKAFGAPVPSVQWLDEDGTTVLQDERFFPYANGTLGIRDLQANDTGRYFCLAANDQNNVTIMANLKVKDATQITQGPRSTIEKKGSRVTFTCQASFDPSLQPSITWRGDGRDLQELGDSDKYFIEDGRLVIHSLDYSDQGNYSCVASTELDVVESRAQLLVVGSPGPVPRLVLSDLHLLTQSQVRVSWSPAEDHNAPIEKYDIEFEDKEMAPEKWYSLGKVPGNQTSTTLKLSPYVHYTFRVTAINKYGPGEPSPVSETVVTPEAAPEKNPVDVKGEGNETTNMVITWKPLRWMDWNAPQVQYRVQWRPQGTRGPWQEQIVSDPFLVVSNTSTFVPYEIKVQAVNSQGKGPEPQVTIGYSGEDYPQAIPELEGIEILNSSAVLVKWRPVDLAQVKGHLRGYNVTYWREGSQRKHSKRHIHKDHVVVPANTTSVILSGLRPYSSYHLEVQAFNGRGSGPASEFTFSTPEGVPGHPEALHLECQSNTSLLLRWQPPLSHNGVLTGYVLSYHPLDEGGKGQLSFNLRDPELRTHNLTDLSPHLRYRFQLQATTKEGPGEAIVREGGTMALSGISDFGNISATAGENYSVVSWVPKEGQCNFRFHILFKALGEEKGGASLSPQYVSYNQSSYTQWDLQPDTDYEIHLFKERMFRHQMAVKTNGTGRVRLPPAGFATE

B1: SLITRK1 ECD-immunoglobulin Fc domain-fusion protein (SLITRK1-WT-Fc) (Fc fusion, human, UniProt Q96PX8 18-616, looked up)
chain: NVTGDVCKEKICSCNEIEGDLHVDCEKKGFTSLQRFTAPTSQFYHLFLHGNSLTRLFPNEFANFYNAVSLHMENNGLHEIVPGAFLGLQLVKRLHINNNKIKSFRKQTFLGLDDLEYLQADFNLLRDIDPGAFQDLNKLEVLILNDNLISTLPANVFQYVPITHLDLRGNRLKTLPYEEVLEQIPGIAEILLEDNPWDCTCDLLSLKEWLENIPKNALIGRVVCEAPTRLQGKDLNETTEQDLCPLKNRVDSSLPAPPAQEETFAPGPLPTPFKTNGQEDHATPGSAPNGGTKIPGNWQIKIRPTAAIATGSSRNKPLANSLPCPGGCSCDHIPGSGLKMNCNNRNVSSLADLKPKLSNVQELFLRDNKIHSIRKSHFVDYKNLILLDLGNNNIATVENNTFKNLLDLRWLYMDSNYLDTLSREKFAGLQNLEYLNVEYNAIQLILPGTFNAMPKLRILILNNNLLRSLPVDVFAGVSLSKLSLHNNYFMYLPVAGVLDQLTSIIQIDLHGNPWECSCTIVPFKQWAERLGSEVLMSDLKCETPVNFFRKDFMLLSNDEICPQLYARISPTLTSHSKNSTGLAETGTHSNSYLDTSRVS
notes: signal peptide in the construct; human SLITRK1 extracellular domain, amino acid number 1-616 in NP_443142; also called SLITRK1 ECD-Fc; SLITRK1 ECD-Fc fusion protein
In the case of B1, the values for the Kd in assay [1] and in assay [2] were 5.47 nM and 152 nM, respectively.
